Data published in publication PMC4201290.

Experiments:
Test in all cases: fluorescence polarization
[1] = molecular target: Egr1/Zif268 ZnF1-3 (Homo sapiens) (UniProt P18146); conditions: FP: 5 nM FAM-dsDNA, 300 mM NaCl (200 mM in Fig 4E), 20 mM Tris-HCl pH 7.5, 5% glycerol, 0.5 mM TCEP, 25 C, 10 min
[2] = tested on: WT1 ZnF2-4 (-KTS) (Homo sapiens), P19544-4; conditions: FP: 5 nM FAM-dsDNA, 300 mM NaCl (200 mM in Fig 4E), 20 mM Tris-HCl pH 7.5, 5% glycerol, 0.5 mM TCEP, 25 C, 10 min; for Kd: 300 mM NaCl
[3] = molecular target: WT1 ZnF2-4 +KTS isoform (Homo sapiens) (UniProt P19544); conditions: FP: 5 nM FAM-dsDNA, 300 mM NaCl (200 mM in Fig 4E), 20 mM Tris-HCl pH 7.5, 5% glycerol, 0.5 mM TCEP, 25 C, 10 min
[4] = 5fC at C9 of strand 1, 5mC at C3 of strand 1 and C3, C9 of strand 2
[5] = 5hmC at C9 of strand 1, 5mC at C3 of strand 1 and C3, C9 of strand 2
[6] = 5hmC at C3 and C9 of strand 1, 5mC at C3 and C9 of strand 2
[7] = 5mC at C3 and C9 of strand 2 only
[8] = 5mC at C3 and C9 of both strands

WT1 ZnF2-4 (-KTS) (Homo sapiens), P19544-4, sequence (P19544 other isoform, or with tags, fused parts or gaps): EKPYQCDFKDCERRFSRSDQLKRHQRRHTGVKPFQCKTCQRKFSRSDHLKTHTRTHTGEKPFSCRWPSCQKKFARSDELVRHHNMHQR
WT1 ZnF2-4 +KTS isoform (Homo sapiens), sequence (P19544 350-440): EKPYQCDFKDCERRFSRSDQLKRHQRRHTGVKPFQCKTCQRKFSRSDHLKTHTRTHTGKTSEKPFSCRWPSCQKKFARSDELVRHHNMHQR

AGCGTGGGCGT / TACGCCCACGC [5caCx1]
Kd ([1]; 5caC at C9 of strand 1, 5mC at C3 of strand 1 and C3, C9 of strand 2): > 12000 nM
Kd ([2]; 2-fold stronger than 5mC, 5caC at C9 of strand 1, 5mC at C3 of strand 1 and C3, C9 of strand 2): 50 nM

AGCGTGGGCGT / TACGCCCACGC [5caCx2]
Kd ([2]; ~25-fold weaker than M/M, also printed as KD > 2.3 uM, 5caC at C3 and C9 of strand 1, 5mC at C3 and C9 of strand 2): 2300 nM

AGCGTGGGCGT / TACGCCCACGC [5fCx1]
binding signal (fold weaker than 5mC (M/M)) [1, 4]: 15
binding signal (fold weaker than 5mC (M/M)) [2, 4]: 14

AGCGTGGGCGT / TACGCCCACGC [5fCx2]
binding signal (fold weaker than M/M) ([2]; 5fC at C3 and C9 of strand 1, 5mC at C3 and C9 of strand 2): 75

AGCGTGGGCGT / TACGCCCACGC [5hmCx1]
binding signal (fold weaker than 5mC (M/M)) [1, 5]: 3.6
binding signal (fold weaker than 5mC (M/M)) [2, 5]: 4.5

AGCGTGGGCGT / TACGCCCACGC [5hmCx2]
binding signal (fold weaker than M/M) [1, 6]: 24
binding signal (fold weaker than M/M) [2, 6]: 75

AGCGTGGGCGT / TACGCCCACGC [C/C]
binding signal (fold weaker than M/M) ([1]; none): 2.8
binding signal (fold weaker than M/M) ([2]; none): 1.8
binding signal (fold weaker than -KTS isoform) ([3]; none): 24

AGCGTGGGCGT / TACGCCCACGC [C/M]
binding signal (fold weaker than M/M) [1, 7]: 2
binding signal (fold weaker than M/M) [2, 7]: 1.2
binding signal (fold weaker than -KTS isoform) [3, 7]: 24

AGCGTGGGCGT / TACGCCCACGC [M/M]
binding signal (fold stronger than C/C) [1, 8]: 2.8
binding signal (fold stronger than C/C) [2, 8]: 1.8
binding signal (fold weaker than -KTS isoform) ([3]; 300 mM NaCl, 25-fold also printed (Fig 4C), 5mC at C3 and C9 of both strands): 24
